Results taken from publication PMC9482650, “Quantitative fragmentomics allow affinity mapping of interactomes” (Nature Communications, 2022).
Values belong to the binder of their own block, whether it stands above or below them.

Tests used:
Assay in all cases: holdup assay
Design in all cases: key: below the threshold = too weak to quantify, mostly under pKd 3.1 to 4
Conditions in all cases: plain residues with an end cap or a label only (N-terminal biotin on a linker: ado-ado)
DLG3_1, Q92796 = target: T1, DLG3_1, Q92796
T1 sequence (Q92796 125-227, limits assumed, looked up): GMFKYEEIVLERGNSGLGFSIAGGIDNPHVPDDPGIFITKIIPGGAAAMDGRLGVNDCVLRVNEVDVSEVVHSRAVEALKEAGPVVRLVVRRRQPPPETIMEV

AHNAK1, Q09666 = target: AHNAK1, Q09666
DLG5_1, Q8TDM6 = target: DLG5_1, Q8TDM6
MPDZ_10, O75970 = target: T2, MPDZ_10, O75970
T2 sequence (O75970 1624-1722, limits assumed, looked up): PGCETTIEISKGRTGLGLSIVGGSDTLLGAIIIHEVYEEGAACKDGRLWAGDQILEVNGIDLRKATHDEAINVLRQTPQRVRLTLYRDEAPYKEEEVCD

MPDZ_5, O75970 = target: T3, MPDZ_5, O75970
T3 sequence (O75970 695-796, limits assumed, looked up): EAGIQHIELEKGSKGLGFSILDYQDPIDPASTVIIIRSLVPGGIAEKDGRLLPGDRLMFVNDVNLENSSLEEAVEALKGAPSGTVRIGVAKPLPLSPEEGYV

MAGI1_2, Q96QZ7 = target: MAGI1_2, Q96QZ7
ARHGAP21, Q5T5U3 = target: T4, ARHGAP21, Q5T5U3
T4 sequence (Q5T5U3 45-169, limits assumed, looked up): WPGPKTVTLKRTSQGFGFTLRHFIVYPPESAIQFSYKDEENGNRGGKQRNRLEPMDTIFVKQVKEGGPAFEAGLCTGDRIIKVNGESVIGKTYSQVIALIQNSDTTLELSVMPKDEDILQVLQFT

GRIP1_4, Q9Y3R0 = target: T5, GRIP1_4, Q9Y3R0
T5 sequence (Q9Y3R0 467-571, limits assumed, looked up): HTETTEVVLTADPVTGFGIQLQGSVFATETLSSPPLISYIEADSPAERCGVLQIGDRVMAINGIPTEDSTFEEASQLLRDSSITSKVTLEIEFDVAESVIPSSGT

GRID2IP_2, A4D2P6 = target: GRID2IP_2, A4D2P6
LIN7C, Q9NUP9 = target: T6, LIN7C, Q9NUP9
T6 sequence (Q9NUP9 88-185, limits assumed, looked up): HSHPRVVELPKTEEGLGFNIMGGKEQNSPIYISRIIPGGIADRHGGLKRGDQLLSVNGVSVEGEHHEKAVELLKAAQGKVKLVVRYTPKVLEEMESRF

LNX1_2, Q8TBB1 = target: LNX1_2, Q8TBB1
TIAM2, Q8IVF5 = target: T7, TIAM2, Q8IVF5
T7 sequence (Q8IVF5 885-986, limits assumed, looked up): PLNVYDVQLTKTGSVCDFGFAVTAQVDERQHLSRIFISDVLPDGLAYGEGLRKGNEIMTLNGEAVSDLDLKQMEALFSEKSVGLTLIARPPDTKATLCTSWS

FRMPD2_2, Q68DX3 = target: FRMPD2_2, Q68DX3
SNTB1, Q13884 = target: T8, SNTB1, Q13884
T8 sequence (Q13884 107-205, limits assumed, looked up): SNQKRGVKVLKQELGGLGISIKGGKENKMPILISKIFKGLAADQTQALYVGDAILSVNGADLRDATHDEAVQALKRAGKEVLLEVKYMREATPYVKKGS

TX1BP3, O14907 = target: T9, TX1BP3, O14907
T9 sequence (O14907 10-122, limits assumed, looked up): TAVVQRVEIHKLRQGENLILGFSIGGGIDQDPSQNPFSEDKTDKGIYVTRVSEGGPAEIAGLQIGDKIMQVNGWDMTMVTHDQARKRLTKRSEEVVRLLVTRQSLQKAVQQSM

SNX27, Q96L92 = target: SNX27, Q96L92
FRMPD2_1, Q68DX3 = target: FRMPD2_1, Q68DX3
GRASP, Q7Z6J2 = target: GRASP, Q7Z6J2
SCRIB_3, Q14160 = target: SCRIB_3, Q14160
MPP6, Q9NZW5 = target: T10, MPP6, Q9NZW5
T10 sequence (Q9NZW5 125-219, limits assumed, looked up): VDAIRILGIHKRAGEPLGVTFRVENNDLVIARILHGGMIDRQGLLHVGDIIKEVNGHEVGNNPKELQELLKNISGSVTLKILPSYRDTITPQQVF

Inadl_6, Q8NI35 = target: Inadl_6, Q8NI35
PDZD2_2, O15018 = target: T11, PDZD2_2, O15018
T11 sequence (O15018 329-429, limits assumed, looked up): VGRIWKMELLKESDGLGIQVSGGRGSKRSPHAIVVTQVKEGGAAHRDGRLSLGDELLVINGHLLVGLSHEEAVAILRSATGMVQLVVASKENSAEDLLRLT

LAP2, Q96RT1 = target: LAP2, Q96RT1
LIN7B, Q9HAP6 = target: T12, LIN7B, Q9HAP6
T12 sequence (Q9HAP6 88-185, limits assumed, looked up): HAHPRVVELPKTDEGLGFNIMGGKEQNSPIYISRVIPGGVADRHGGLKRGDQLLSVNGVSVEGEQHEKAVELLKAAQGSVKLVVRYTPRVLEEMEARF

PICK1, Q9NRD5 = target: PICK1, Q9NRD5
PICK1, Q9NRD5, sequence (Q9NRD5 17-115): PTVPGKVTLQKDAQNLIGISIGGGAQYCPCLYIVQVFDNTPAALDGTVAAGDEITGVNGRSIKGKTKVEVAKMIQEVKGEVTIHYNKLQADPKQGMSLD

GRID2IP_2, A4D2P6, sequence (A4D2P6 272-370): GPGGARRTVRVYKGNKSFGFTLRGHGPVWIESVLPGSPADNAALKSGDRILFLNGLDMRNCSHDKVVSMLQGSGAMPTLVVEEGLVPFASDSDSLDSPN
SCRIB_3, Q14160, sequence (Q14160 999-1103): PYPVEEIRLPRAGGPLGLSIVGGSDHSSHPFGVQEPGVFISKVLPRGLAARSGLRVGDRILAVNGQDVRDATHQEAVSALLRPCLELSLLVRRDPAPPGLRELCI
LNX1_2, Q8TBB1, sequence (Q8TBB1 371-470): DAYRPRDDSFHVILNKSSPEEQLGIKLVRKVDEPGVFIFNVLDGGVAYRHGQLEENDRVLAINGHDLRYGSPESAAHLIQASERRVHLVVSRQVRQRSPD
FRMPD2_1, Q68DX3, sequence (Q68DX3 770-861): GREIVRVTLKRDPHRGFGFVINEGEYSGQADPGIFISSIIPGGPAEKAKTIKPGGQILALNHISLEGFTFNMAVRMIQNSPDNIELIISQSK
FRMPD2_2, Q68DX3, sequence (Q68DX3 944-1038): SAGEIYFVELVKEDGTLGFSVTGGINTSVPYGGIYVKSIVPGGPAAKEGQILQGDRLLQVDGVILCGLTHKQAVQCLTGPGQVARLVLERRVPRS
DLG5_1, Q8TDM6, sequence (Q8TDM6 617-713): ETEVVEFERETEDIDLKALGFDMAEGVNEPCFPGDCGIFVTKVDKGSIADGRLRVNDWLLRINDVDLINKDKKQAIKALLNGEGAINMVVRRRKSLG
GRASP, Q7Z6J2, sequence (Q7Z6J2 96-193): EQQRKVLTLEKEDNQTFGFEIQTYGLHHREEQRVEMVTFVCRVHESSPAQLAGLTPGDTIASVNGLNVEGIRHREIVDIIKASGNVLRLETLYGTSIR
MAGI1_2, Q96QZ7, sequence (Q96QZ7 456-580): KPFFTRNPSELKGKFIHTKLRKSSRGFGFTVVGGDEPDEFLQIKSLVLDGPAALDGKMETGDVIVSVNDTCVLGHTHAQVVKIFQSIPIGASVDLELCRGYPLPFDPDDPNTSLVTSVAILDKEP
Inadl_6, Q8NI35, sequence (Q8NI35 1058-1167): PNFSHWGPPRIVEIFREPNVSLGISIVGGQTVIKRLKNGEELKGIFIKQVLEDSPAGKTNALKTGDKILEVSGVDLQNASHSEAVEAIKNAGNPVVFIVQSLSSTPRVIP
AHNAK1, Q09666, sequence (Q09666 4-100): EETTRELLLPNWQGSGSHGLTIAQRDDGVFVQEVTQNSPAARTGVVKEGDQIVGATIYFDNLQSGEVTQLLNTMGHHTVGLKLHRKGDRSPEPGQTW
LAP2, Q96RT1, sequence (Q96RT1 other isoform, or with tags, fused parts or gaps): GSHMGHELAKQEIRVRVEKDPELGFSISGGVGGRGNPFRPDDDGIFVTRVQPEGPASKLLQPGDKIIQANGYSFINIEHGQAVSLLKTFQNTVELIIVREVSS

B1: ERBB2, P04626 (peptide)
chain: PEYLGLDVPV
- pKd (DLG3_1, Q92796): below the threshold
- pKd (AHNAK1, Q09666): below the threshold
- pKd (DLG5_1, Q8TDM6): below the threshold
- pKd (MPDZ_10, O75970): below the threshold
- pKd (MPDZ_5, O75970): below the threshold
- pKd (MAGI1_2, Q96QZ7): below the threshold
- pKd (ARHGAP21, Q5T5U3): 4.12
- pKd (GRIP1_4, Q9Y3R0): below the threshold
- pKd (GRID2IP_2, A4D2P6): below the threshold
- pKd (LIN7C, Q9NUP9): below the threshold
- pKd (LNX1_2, Q8TBB1): below the threshold
- pKd (TIAM2, Q8IVF5): below the threshold
- pKd (FRMPD2_2, Q68DX3): below the threshold
- pKd (SNTB1, Q13884): 3.92
- pKd (TX1BP3, O14907): 4.19
- pKd (SNX27, Q96L92): 3.94
- pKd (FRMPD2_1, Q68DX3): 3.53
- pKd (GRASP, Q7Z6J2): below the threshold
- pKd (SCRIB_3, Q14160): below the threshold
- pKd (MPP6, Q9NZW5): below the threshold
- pKd (Inadl_6, Q8NI35): below the threshold
- pKd (PDZD2_2, O15018): below the threshold
- pKd (LAP2, Q96RT1): 4.26
- pKd (LIN7B, Q9HAP6): below the threshold
- pKd (PICK1, Q9NRD5): 4.25

B2: ABCA7, Q8IZY2 (peptide)
chain: DDPSTAETVL
- pKd (DLG3_1, Q92796): below the threshold
- pKd (AHNAK1, Q09666): below the threshold
- pKd (DLG5_1, Q8TDM6): below the threshold
- pKd (MPDZ_10, O75970): below the threshold
- pKd (MPDZ_5, O75970): below the threshold
- pKd (MAGI1_2, Q96QZ7): below the threshold
- pKd (ARHGAP21, Q5T5U3): 3.8
- pKd (GRIP1_4, Q9Y3R0): below the threshold
- pKd (GRID2IP_2, A4D2P6): below the threshold
- pKd (LIN7C, Q9NUP9): below the threshold
- pKd (LNX1_2, Q8TBB1): below the threshold
- pKd (TIAM2, Q8IVF5): 3.99
- pKd (FRMPD2_2, Q68DX3): below the threshold
- pKd (SNTB1, Q13884): 4.87
- pKd (TX1BP3, O14907): below the threshold
- pKd (SNX27, Q96L92): 5.6
- pKd (FRMPD2_1, Q68DX3): below the threshold
- pKd (GRASP, Q7Z6J2): below the threshold
- pKd (SCRIB_3, Q14160): 4.73
- pKd (MPP6, Q9NZW5): below the threshold
- pKd (Inadl_6, Q8NI35): 3.98
- pKd (PDZD2_2, O15018): below the threshold
- pKd (LAP2, Q96RT1): 3.71
- pKd (LIN7B, Q9HAP6): 3.89
- pKd (PICK1, Q9NRD5): below the threshold

Other lines, results leading:

- pKd (DLG3_1, Q92796): below the threshold
- pKd (AHNAK1, Q09666): below the threshold
- pKd (DLG5_1, Q8TDM6): below the threshold
- pKd (MPDZ_10, O75970): below the threshold
- pKd (MPDZ_5, O75970): 4.06
- pKd (MAGI1_2, Q96QZ7): below the threshold
- pKd (ARHGAP21, Q5T5U3): 3.56
- pKd (GRIP1_4, Q9Y3R0): below the threshold
- pKd (GRID2IP_2, A4D2P6): 3.89
- pKd (LIN7C, Q9NUP9): below the threshold
- pKd (LNX1_2, Q8TBB1): 3.75
- pKd (TIAM2, Q8IVF5): 4.1
- pKd (FRMPD2_2, Q68DX3): below the threshold
- pKd (SNTB1, Q13884): below the threshold
- pKd (TX1BP3, O14907): below the threshold
- pKd (SNX27, Q96L92): 4.38
- pKd (FRMPD2_1, Q68DX3): 4.24
- pKd (GRASP, Q7Z6J2): 4.01
- pKd (SCRIB_3, Q14160): below the threshold
- pKd (MPP6, Q9NZW5): below the threshold
- pKd (Inadl_6, Q8NI35): below the threshold
- pKd (PDZD2_2, O15018): 5.81
- pKd (LAP2, Q96RT1): 4.11
- pKd (LIN7B, Q9HAP6): 3.81
- pKd (PICK1, Q9NRD5): below the threshold
B3: GJD4, Q96KN9 (peptide)
chain: HLRARKSEWV

- pKd (DLG3_1, Q92796): 4.3
- pKd (AHNAK1, Q09666): below the threshold
- pKd (DLG5_1, Q8TDM6): below the threshold
- pKd (MPDZ_10, O75970): 3.57
- pKd (MPDZ_5, O75970): below the threshold
- pKd (MAGI1_2, Q96QZ7): 4.82
- pKd (ARHGAP21, Q5T5U3): below the threshold
- pKd (GRIP1_4, Q9Y3R0): below the threshold
- pKd (GRID2IP_2, A4D2P6): 3.77
- pKd (LIN7C, Q9NUP9): below the threshold
- pKd (LNX1_2, Q8TBB1): 3.52
- pKd (TIAM2, Q8IVF5): 3.91
- pKd (FRMPD2_2, Q68DX3): below the threshold
- pKd (SNTB1, Q13884): 4.16
- pKd (TX1BP3, O14907): 3.76
- pKd (SNX27, Q96L92): 3.98
- pKd (FRMPD2_1, Q68DX3): 3.53
- pKd (GRASP, Q7Z6J2): 4.41
- pKd (SCRIB_3, Q14160): 3.74
- pKd (MPP6, Q9NZW5): below the threshold
- pKd (Inadl_6, Q8NI35): below the threshold
- pKd (PDZD2_2, O15018): 4.29
- pKd (LAP2, Q96RT1): below the threshold
- pKd (LIN7B, Q9HAP6): 3.73
- pKd (PICK1, Q9NRD5): 4.14
B4: IQSEC2, Q5JU85 (peptide)
chain: AKPSRISTVV
